Measurements reported in publication PMC11513889.

Substrate: NC(=O)NO
Assay: purified protein
Details: 1 mM NADH, NB5R3, CYB5B, 20 mM MES pH 6.0, 37 °C

B1: mARC1 (Homo sapiens) (protein)
chain: GAAGSSALARFVLLAQSRPGWLGVAALGLTAVALGAVAWRRAWPTRRRRLLQQVGTVAQLWIYPVKSCKGVPVSEAECTAMGLRSGNLRDRFWLVINQEGNMVTARQEPRLVLISLTCDGDTLTLSAAYTKDLLLPIKTPTTNAVHKCRVHGLEIEGRDCGEATAQWITSFLKSQPYRLVHFEPHMRPRRPHQIADLFRPKDQIAYSDTSPFLILSEASLADLNSRLEKKVKATNFRPNIVISGCDVYAEDSWDELLIGDVELKRVMACSRCILTTVDPDTGVMSRKEPLETLKSYRQCDPSERKLYGKSPLFGQYFVLENPGTIKVGDPVYLLGQ
Work on B1 yielded a Km of 7 mM.
